Experiments:
Assay in all cases: holdup assay
Design in all cases: key: below the threshold = too weak to quantify, mostly under pKd 3.1 to 4
[1] = biological target: T1, GRIP1_7, Q9Y3R0
T1 sequence (Q9Y3R0 999-1096, limits assumed, looked up): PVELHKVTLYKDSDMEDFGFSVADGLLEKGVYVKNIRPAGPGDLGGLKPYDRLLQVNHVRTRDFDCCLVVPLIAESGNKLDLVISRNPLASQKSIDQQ

[2] = biological target: T2, GRIP1_4, Q9Y3R0
T2 sequence (Q9Y3R0 467-571, limits assumed, looked up): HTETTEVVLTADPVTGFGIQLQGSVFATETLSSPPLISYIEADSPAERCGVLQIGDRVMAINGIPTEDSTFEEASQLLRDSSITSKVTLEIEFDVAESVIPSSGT

[3] = biological target: Inadl_5, Q8NI35
[4] = biological target: DLG1_2, Q12959
[5] = biological target: PICK1, Q9NRD5
[6] = biological target: T3, PDZD2_2, O15018
T3 sequence (O15018 329-429, limits assumed, looked up): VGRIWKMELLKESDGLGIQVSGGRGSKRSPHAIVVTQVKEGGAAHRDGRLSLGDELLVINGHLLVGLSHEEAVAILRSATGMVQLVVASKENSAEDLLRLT

[7] = biological target: T4, MPP7, Q5T2T1
T4 sequence (Q5T2T1 134-230, limits assumed, looked up): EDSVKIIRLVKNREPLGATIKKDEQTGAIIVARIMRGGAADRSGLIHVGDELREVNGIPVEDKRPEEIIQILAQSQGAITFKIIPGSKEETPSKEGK

[8] = biological target: T5, APBA2_1, Q99767
T5 sequence (Q99767 563-664, limits assumed, looked up): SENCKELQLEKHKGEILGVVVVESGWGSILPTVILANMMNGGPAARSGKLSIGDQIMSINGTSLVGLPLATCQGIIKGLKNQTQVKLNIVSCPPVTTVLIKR

[9] = biological target: DLG1_1, Q12959
[10] = biological target: NHERF4_1, Q86UT5-2
[11] = biological target: T6, LIN7B, Q9HAP6
T6 sequence (Q9HAP6 88-185, limits assumed, looked up): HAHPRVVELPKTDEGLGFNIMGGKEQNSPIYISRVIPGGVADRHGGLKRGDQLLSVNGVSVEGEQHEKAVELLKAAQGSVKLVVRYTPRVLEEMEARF

[12] = biological target: LNX1_3, Q8TBB1
[13] = biological target: GORASP1, Q9BQQ3
[14] = biological target: T7, DFNB31_1, Q9P202
T7 sequence (Q9P202 135-233, limits assumed, looked up): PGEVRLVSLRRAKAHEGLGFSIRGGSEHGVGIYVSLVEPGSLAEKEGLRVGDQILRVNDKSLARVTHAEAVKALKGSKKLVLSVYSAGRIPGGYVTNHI

[15] = biological target: PDZRN4_1, Q6ZMN7
[16] = biological target: Inadl_9, Q8NI35
[17] = biological target: AHNAK1, Q09666
[18] = biological target: Inadl_10, Q8NI35
[19] = biological target: T8, GRIP1_3, Q9Y3R0
T8 sequence (Q9Y3R0 247-346, limits assumed, looked up): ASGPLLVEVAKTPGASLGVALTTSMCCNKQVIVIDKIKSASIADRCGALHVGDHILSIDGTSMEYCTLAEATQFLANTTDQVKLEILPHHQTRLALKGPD

[20] = biological target: T9, DLG3_2, Q92796
T9 sequence (Q92796 221-321, limits assumed, looked up): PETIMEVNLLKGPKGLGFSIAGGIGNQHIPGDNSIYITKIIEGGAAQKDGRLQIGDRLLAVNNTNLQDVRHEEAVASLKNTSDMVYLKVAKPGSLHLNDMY

[21] = biological target: T10, SNTB1, Q13884
T10 sequence (Q13884 107-205, limits assumed, looked up): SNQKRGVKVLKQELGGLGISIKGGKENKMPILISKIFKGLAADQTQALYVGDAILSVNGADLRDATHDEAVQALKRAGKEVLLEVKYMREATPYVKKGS

[22] = biological target: SCRIB_3, Q14160
[23] = biological target: DLG2_3, Q15700
[24] = biological target: Inadl_1, Q8NI35
[25] = biological target: T11, PCLO, Q9Y6V0
T11 sequence (Q9Y6V0 4491-4600, limits assumed, looked up): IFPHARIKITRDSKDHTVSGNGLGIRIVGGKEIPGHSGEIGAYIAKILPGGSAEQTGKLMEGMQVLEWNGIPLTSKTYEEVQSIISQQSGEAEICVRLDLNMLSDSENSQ

[26] = biological target: T12, HTRA3, P83110
T12 sequence (P83110 354-453, limits assumed, looked up): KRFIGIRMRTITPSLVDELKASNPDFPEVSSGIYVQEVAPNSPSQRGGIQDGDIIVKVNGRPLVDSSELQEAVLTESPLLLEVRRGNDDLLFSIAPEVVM

[27] = plain residues with an end cap or a label only (N-terminal biotin on a linker: ado-ado)
[28] = plain residues with an end cap or a label only (N-terminal biotin on a linker: ahx)
[29] = plain residues with an end cap or a label only (N-terminal biotin on a linker: ttds)

SCRIB_3, Q14160, sequence (Q14160 999-1103): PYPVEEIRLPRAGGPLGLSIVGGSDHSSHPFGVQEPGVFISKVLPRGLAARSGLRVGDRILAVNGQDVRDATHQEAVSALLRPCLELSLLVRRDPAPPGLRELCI
PICK1, Q9NRD5, sequence (Q9NRD5 17-115): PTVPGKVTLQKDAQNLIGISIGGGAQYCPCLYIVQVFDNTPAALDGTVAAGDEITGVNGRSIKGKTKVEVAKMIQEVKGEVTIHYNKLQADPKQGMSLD
Inadl_9, Q8NI35, sequence (Q8NI35 1530-1615): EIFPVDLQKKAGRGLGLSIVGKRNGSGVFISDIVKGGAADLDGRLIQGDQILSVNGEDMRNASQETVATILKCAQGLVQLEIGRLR
AHNAK1, Q09666, sequence (Q09666 4-100): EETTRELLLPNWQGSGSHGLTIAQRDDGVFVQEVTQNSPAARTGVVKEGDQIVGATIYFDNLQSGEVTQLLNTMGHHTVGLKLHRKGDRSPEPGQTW
PDZRN4_1, Q6ZMN7, sequence (Q6ZMN7 213-318): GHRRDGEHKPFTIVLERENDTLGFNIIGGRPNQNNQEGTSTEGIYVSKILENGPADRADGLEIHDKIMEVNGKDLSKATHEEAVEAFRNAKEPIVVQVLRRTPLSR
Inadl_1, Q8NI35, sequence (Q8NI35 113-229): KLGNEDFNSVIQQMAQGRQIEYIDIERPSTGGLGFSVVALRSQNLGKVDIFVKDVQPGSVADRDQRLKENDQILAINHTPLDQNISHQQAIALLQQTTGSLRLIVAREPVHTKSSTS
Inadl_10, Q8NI35, sequence (Q8NI35 1673-1763): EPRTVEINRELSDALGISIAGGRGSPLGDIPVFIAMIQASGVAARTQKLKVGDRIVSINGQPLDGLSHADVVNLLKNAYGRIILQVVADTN
LNX1_3, Q8TBB1, sequence (Q8TBB1 500-596): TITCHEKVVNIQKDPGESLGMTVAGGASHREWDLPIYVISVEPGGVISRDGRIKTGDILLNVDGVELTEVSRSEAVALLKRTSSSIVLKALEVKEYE
NHERF4_1, Q86UT5-2, sequence (Q86UT5 other isoform, or with tags, fused parts or gaps): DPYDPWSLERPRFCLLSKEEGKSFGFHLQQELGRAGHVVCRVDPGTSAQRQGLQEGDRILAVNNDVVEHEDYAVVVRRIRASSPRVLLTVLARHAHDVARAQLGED
Inadl_5, Q8NI35, sequence (Q8NI35 673-780): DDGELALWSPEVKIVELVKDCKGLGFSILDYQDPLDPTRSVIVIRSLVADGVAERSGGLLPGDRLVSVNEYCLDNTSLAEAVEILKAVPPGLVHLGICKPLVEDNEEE
GORASP1, Q9BQQ3, sequence (Q9BQQ3 1-208): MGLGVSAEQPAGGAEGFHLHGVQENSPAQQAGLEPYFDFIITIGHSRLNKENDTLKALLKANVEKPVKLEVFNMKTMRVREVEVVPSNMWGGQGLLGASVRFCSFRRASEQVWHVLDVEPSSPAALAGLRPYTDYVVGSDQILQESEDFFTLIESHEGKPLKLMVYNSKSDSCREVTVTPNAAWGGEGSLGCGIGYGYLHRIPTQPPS

PLSPEQPTKL [TRIM50, Q86XT4]
pKd [1, 27]: below the threshold
pKd [2, 27]: below the threshold
pKd [3, 27]: below the threshold
pKd [4, 27]: below the threshold
pKd [5, 27]: below the threshold
pKd [6, 27]: below the threshold
pKd [7, 27]: below the threshold
pKd [8, 27]: below the threshold
pKd [9, 27]: below the threshold
pKd [10, 27]: 3.98
pKd [11, 27]: below the threshold
pKd [12, 27]: below the threshold
pKd [13, 27]: below the threshold
pKd [14, 27]: below the threshold
pKd [15, 27]: below the threshold
pKd [16, 27]: below the threshold
pKd [17, 27]: below the threshold
pKd [18, 27]: below the threshold
pKd [19, 27]: below the threshold
pKd [20, 27]: below the threshold
pKd [21, 27]: below the threshold
pKd [22, 27]: below the threshold
pKd [23, 27]: below the threshold
pKd [24, 27]: below the threshold
pKd [25, 27]: below the threshold
pKd [26, 27]: below the threshold

RRRKRKRTYL [HPV49-L2, P36762]
pKd [1, 28]: 3.54
pKd [2, 28]: 4.04
pKd [3, 28]: 4.05
pKd [4, 28]: 3.82
pKd [5, 28]: 3.47
pKd [6, 28]: 3.8
pKd [7, 28]: below the threshold
pKd [8, 28]: below the threshold
pKd [9, 28]: 3.49
pKd [10, 28]: 4.69
pKd [11, 28]: below the threshold
pKd [12, 28]: below the threshold
pKd [13, 28]: 4.65
pKd [14, 28]: 3.58
pKd [15, 28]: 3.55
pKd [16, 28]: below the threshold
pKd [17, 28]: 3.56
pKd [18, 28]: below the threshold
pKd [19, 28]: below the threshold
pKd [20, 28]: below the threshold
pKd [21, 28]: 3.58
pKd [22, 28]: 3.75
pKd [23, 28]: 3.54
pKd [24, 28]: below the threshold
pKd [25, 28]: below the threshold
pKd [26, 28]: below the threshold

RPLPRKVSQL [DOCK4, Q8N1I0]
pKd [1, 29]: below the threshold
pKd [2, 29]: below the threshold
pKd [3, 29]: below the threshold
pKd [4, 29]: 3.94
pKd [5, 29]: below the threshold
pKd [6, 29]: below the threshold
pKd [7, 29]: below the threshold
pKd [8, 29]: below the threshold
pKd [9, 29]: below the threshold
pKd [10, 29]: 4.32
pKd [11, 29]: below the threshold
pKd [12, 29]: below the threshold
pKd [13, 29]: 3.55
pKd [14, 29]: below the threshold
pKd [15, 29]: 3.5
pKd [16, 29]: below the threshold
pKd [17, 29]: below the threshold
pKd [18, 29]: below the threshold
pKd [19, 29]: below the threshold
pKd [20, 29]: below the threshold
pKd [21, 29]: 3.55
pKd [22, 29]: 4.72
pKd [23, 29]: 4.17
pKd [24, 29]: below the threshold
pKd [25, 29]: below the threshold
pKd [26, 29]: below the threshold

RAVEEEESRF [PSCDBP, O60759]
pKd [1, 28]: below the threshold
pKd [2, 28]: below the threshold
pKd [3, 28]: below the threshold
pKd [4, 28]: below the threshold
pKd [5, 28]: below the threshold
pKd [6, 28]: below the threshold
pKd [7, 28]: below the threshold
pKd [8, 28]: below the threshold
pKd [9, 28]: below the threshold
pKd [10, 28]: below the threshold
pKd [11, 28]: below the threshold
pKd [12, 28]: below the threshold
pKd [13, 28]: below the threshold
pKd [14, 28]: below the threshold
pKd [15, 28]: below the threshold
pKd [16, 28]: below the threshold
pKd [17, 28]: below the threshold
pKd [18, 28]: below the threshold
pKd [19, 28]: below the threshold
pKd [20, 28]: below the threshold
pKd [21, 28]: below the threshold
pKd [22, 28]: below the threshold
pKd [23, 28]: below the threshold
pKd [24, 28]: below the threshold
pKd [25, 28]: below the threshold
pKd [26, 28]: below the threshold

NRKREIFSNF [NHERF2, Q15599]
pKd [1, 28]: below the threshold
pKd [2, 28]: below the threshold
pKd [3, 28]: below the threshold
pKd [4, 28]: below the threshold
pKd [5, 28]: below the threshold
pKd [6, 28]: below the threshold
pKd [7, 28]: below the threshold
pKd [8, 28]: below the threshold
pKd [9, 28]: below the threshold
pKd [10, 28]: below the threshold
pKd [11, 28]: below the threshold
pKd [12, 28]: below the threshold
pKd [13, 28]: below the threshold
pKd [14, 28]: below the threshold
pKd [15, 28]: below the threshold
pKd [16, 28]: below the threshold
pKd [17, 28]: below the threshold
pKd [18, 28]: below the threshold
pKd [19, 28]: below the threshold
pKd [20, 28]: below the threshold
pKd [21, 28]: below the threshold
pKd [22, 28]: below the threshold
pKd [23, 28]: below the threshold
pKd [24, 28]: below the threshold
pKd [25, 28]: below the threshold
pKd [26, 28]: below the threshold

Source: paper PMC9482650, “Quantitative fragmentomics allow affinity mapping of interactomes” (Nature Communications, 2022)
